# Measurements taken from publication PMC4077741, “Miz-1 Activates Gene Expression via a Novel Consensus DNA Binding Motif”.
# T1: MBP-Miz-1-ZF (Homo sapiens) (UniProt Q13105)
# T1 sequence (Q13105 269-793, looked up): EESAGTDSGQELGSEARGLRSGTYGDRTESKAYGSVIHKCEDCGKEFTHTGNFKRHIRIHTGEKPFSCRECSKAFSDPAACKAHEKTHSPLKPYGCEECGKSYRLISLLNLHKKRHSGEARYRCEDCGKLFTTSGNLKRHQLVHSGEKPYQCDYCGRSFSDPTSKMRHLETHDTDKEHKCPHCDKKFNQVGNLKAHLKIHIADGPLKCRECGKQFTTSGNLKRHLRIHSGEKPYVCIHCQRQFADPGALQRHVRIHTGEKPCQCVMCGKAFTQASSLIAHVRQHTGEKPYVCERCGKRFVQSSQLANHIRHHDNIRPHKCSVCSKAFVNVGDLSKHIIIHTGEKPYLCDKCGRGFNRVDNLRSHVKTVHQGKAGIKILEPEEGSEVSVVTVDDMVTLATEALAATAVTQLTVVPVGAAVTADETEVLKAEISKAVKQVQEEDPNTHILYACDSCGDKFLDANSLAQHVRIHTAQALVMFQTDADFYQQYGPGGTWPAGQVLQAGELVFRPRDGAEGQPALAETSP
# T2: MBP-Miz-1-FL (Homo sapiens, UniProt Q13105 1-803)
# T2 sequence: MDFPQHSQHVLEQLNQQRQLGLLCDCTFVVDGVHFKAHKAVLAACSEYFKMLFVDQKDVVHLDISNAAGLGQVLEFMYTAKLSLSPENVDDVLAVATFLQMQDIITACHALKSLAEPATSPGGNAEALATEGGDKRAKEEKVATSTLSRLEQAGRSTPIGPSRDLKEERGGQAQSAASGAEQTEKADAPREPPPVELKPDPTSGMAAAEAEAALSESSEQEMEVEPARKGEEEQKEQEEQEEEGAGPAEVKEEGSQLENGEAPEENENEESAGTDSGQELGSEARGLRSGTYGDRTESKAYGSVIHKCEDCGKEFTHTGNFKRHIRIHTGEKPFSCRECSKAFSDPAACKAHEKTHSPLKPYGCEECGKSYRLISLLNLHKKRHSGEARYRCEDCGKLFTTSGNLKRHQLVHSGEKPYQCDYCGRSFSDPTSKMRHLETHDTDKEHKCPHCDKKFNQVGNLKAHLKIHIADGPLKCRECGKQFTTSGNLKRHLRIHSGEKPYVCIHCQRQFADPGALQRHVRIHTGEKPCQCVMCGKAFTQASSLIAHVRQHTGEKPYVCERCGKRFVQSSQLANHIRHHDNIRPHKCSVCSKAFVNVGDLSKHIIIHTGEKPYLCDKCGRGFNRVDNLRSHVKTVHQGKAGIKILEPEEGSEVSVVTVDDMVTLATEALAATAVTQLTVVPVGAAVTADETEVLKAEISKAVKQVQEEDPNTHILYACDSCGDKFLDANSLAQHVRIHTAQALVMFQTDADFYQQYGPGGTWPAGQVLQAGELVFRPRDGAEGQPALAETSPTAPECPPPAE
# T3: Miz-1 (Figure 7 preparation) (UniProt Q13105 1-803)
# T3 sequence: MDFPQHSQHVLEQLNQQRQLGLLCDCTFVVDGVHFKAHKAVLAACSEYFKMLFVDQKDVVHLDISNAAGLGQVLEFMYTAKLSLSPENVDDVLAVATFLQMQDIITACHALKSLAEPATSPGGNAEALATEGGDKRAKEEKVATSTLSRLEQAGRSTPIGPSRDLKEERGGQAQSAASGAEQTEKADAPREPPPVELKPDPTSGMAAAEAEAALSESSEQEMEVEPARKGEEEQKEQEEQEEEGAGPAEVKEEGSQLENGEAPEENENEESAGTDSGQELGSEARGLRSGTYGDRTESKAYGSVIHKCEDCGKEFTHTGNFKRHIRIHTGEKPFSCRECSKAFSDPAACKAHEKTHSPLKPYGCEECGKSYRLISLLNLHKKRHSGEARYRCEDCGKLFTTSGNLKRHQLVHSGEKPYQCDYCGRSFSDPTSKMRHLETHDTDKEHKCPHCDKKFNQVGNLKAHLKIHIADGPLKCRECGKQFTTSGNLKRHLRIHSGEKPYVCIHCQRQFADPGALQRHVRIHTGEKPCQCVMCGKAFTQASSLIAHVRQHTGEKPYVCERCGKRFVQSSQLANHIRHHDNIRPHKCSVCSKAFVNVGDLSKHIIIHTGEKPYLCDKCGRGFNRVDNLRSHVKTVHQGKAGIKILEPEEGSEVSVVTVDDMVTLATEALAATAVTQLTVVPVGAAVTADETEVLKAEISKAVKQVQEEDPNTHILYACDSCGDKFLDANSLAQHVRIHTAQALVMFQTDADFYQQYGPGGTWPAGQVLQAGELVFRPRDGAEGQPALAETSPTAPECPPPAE
# T4: Miz-1 untagged (Homo sapiens, UniProt Q13105 1-803)
# T4 sequence: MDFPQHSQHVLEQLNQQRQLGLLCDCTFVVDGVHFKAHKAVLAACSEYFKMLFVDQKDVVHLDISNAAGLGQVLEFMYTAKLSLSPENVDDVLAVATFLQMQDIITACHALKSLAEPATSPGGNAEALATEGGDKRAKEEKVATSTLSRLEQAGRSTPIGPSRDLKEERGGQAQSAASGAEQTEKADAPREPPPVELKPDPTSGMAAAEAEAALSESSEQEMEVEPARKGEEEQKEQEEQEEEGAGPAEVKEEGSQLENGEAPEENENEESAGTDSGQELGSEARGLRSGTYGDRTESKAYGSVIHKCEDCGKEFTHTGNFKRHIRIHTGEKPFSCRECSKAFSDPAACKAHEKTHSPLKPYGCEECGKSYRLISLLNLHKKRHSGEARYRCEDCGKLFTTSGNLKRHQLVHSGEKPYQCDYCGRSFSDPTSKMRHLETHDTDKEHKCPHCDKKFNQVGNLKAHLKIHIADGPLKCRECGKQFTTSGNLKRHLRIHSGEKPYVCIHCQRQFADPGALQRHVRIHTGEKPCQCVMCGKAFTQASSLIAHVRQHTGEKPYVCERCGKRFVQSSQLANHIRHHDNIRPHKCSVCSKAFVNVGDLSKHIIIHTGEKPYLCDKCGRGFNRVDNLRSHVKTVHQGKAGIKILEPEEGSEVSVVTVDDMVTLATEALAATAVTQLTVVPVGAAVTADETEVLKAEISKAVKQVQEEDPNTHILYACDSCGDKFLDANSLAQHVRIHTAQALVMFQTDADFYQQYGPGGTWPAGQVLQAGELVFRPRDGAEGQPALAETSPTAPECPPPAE
# Assays:
# Cux1 = Cux1 (UniProt P39880); assay: EMSA; conditions: EMSA: ZBA (10 mM Tris pH 7.5, 90 mM KCl, 1 mM MgCl2, 90 uM ZnCl2, 5 mM DTT) with 100 ng/ul poly(dI-dC), 15 min, room temperature, 5% acrylamide gel in 0.5X …
# Cux1, sequence (P39880 whole entry): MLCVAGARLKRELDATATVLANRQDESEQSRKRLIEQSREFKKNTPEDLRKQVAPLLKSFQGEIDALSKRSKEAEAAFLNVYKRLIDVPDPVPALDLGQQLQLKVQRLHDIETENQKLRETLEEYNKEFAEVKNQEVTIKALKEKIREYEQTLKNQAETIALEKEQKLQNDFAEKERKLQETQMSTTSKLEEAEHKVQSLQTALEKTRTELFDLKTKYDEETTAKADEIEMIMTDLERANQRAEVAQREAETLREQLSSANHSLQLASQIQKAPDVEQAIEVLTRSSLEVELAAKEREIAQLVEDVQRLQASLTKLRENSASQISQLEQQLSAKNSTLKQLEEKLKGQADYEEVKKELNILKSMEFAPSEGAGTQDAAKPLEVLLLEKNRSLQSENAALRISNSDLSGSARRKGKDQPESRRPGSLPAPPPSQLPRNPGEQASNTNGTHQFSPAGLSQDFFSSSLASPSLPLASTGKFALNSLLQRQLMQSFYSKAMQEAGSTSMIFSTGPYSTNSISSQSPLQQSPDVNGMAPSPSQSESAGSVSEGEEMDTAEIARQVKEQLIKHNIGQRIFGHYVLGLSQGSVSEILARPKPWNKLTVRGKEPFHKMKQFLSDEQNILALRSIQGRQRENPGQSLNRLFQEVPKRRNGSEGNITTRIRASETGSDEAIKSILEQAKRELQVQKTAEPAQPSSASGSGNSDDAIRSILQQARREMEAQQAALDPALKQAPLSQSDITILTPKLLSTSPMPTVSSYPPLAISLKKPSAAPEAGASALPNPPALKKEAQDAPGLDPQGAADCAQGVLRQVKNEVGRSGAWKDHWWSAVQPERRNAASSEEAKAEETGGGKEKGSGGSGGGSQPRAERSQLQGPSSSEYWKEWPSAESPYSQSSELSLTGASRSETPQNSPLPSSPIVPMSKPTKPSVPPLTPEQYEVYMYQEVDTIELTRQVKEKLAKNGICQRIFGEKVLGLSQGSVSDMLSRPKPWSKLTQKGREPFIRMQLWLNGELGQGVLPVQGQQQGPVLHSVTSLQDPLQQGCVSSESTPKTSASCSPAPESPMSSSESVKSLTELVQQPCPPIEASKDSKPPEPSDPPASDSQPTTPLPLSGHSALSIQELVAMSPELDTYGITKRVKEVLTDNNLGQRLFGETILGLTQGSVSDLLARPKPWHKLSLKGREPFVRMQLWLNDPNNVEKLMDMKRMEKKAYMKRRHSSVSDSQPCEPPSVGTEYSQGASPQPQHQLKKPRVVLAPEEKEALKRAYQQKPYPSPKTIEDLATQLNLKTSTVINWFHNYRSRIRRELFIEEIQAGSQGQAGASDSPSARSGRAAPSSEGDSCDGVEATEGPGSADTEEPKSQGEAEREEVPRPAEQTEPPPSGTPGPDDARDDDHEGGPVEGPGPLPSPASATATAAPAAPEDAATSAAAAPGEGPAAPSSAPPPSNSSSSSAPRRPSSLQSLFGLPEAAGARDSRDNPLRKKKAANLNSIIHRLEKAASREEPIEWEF
# [1] = molecular target: T1, MBP-Miz-1-ZF (Homo sapiens); assay: competition; conditions: EMSA: ZBA (10 mM Tris pH 7.5, 90 mM KCl, 1 mM MgCl2, 90 uM ZnCl2, 5 mM DTT) with 100 ng/ul poly(dI-dC), 15 min, room temperature, 5% acrylamide gel in 0.5X …
# MBP-Miz-1-FL [2] = molecular target: T2, MBP-Miz-1-FL; assay: competition; 200-fold unlabeled P1 vs labeled P2; EMSA: ZBA (10 mM Tris pH 7.5, 90 mM KCl, 1 mM MgCl2, 90 uM ZnCl2, 5 mM DTT) with 100 ng/ul poly(dI-dC), 15 min, room temperature; 5% acrylamide gel in 0.5X Tris-borate at 4 C; conditions: protein: recombinant; tags: N-terminal MBP; label: 5' IRDye 700 (labeled version); blunt
# MBP-Miz-1-FL [3] = molecular target: T2, MBP-Miz-1-FL; assay: competition; 200-fold unlabeled P1 vs labeled P1; EMSA: ZBA (10 mM Tris pH 7.5, 90 mM KCl, 1 mM MgCl2, 90 uM ZnCl2, 5 mM DTT) with 100 ng/ul poly(dI-dC), 15 min, room temperature; 5% acrylamide gel in 0.5X Tris-borate at 4 C; conditions: protein: recombinant; tags: N-terminal MBP; label: 5' IRDye 700 (labeled version); blunt
# [4] = molecular target: T3, Miz-1 (Figure 7 preparation); assay: EMSA; EMSA: ZBA (10 mM Tris pH 7.5, 90 mM KCl, 1 mM MgCl2, 90 uM ZnCl2, 5 mM DTT) with 100 ng/ul poly(dI-dC), 15 min, room temperature; 5% acrylamide gel in 0.5X Tris-borate at 4 C; conditions: protein: ivt; label: 5' IRDye 700 (labeled version); blunt
# MBP-Miz-1-FL [5] = molecular target: T2, MBP-Miz-1-FL; assay: competition; unlabeled P1m3 vs labeled P1 or P2; range over both proteins and probes; EMSA: ZBA (10 mM Tris pH 7.5, 90 mM KCl, 1 mM MgCl2, 90 uM ZnCl2, 5 mM DTT) with 100 ng/ul poly(dI-dC), 15 min, room temperature; 5% acrylamide gel in 0.5X Tris-borate at 4 C; conditions: protein: recombinant; tags: N-terminal MBP; blunt
# [6] = molecular target: T3, Miz-1 (Figure 7 preparation); assay: EMSA; EMSA: ZBA (10 mM Tris pH 7.5, 90 mM KCl, 1 mM MgCl2, 90 uM ZnCl2, 5 mM DTT) with 100 ng/ul poly(dI-dC), 15 min, room temperature; 5% acrylamide gel in 0.5X Tris-borate at 4 C; conditions: protein: ivt; label: 5' IRDye 700; blunt
# MBP-Miz-1-FL [7] = molecular target: T2, MBP-Miz-1-FL; assay: as above; conditions: protein: recombinant; tags: N-terminal MBP; label: 5' IRDye 700; blunt
# Miz-1 untagged = molecular target: T4, Miz-1 untagged; assay: as above; conditions: protein: ivt; tags: none; label: 5' IRDye 700; blunt
# MBP-Miz-1-FL [8] = molecular target: T2, MBP-Miz-1-FL; assay: competition; 200-fold unlabeled P2 vs labeled P1; EMSA: ZBA (10 mM Tris pH 7.5, 90 mM KCl, 1 mM MgCl2, 90 uM ZnCl2, 5 mM DTT) with 100 ng/ul poly(dI-dC), 15 min, room temperature; 5% acrylamide gel in 0.5X Tris-borate at 4 C; conditions: protein: recombinant; tags: N-terminal MBP; label: 5' IRDye 700 (labeled version); blunt
# MBP-Miz-1-FL [9] = molecular target: T2, MBP-Miz-1-FL; assay: competition; 200-fold unlabeled P2 vs labeled P2; EMSA: ZBA (10 mM Tris pH 7.5, 90 mM KCl, 1 mM MgCl2, 90 uM ZnCl2, 5 mM DTT) with 100 ng/ul poly(dI-dC), 15 min, room temperature; 5% acrylamide gel in 0.5X Tris-borate at 4 C; conditions: protein: recombinant; tags: N-terminal MBP; label: 5' IRDye 700 (labeled version); blunt
molecule,measurement,setting,value
GAATTATCGGTAATCCATCGAGGT (double strand) [P1],binding signal,Cux1; scale: bound intensity relative to P2,0.5
same,binding signal (% reduction of bound labeled P1),[1]; 200-fold unlabeled P1 vs labeled P1,87
GAATTAGGAGTAAACCATCGAGGT (double strand) [P1m1],binding signal (% reduction of bound labeled P1),"[1]; unlabeled P1m1 vs labeled P1, competition nearly eliminated",7
GAATTATCCGTAATGCATCGAGGT (double strand) [P1m2],binding signal (% reduction of bound labeled P1),"[1]; unlabeled P1m2 vs labeled P1, competition nearly eliminated",24
AGGGTTGGTATCGATTATCGAGTT (double strand) [P2],binding signal (fold bound intensity P2 over P1),Cux1,2
P1 (dsDNA) DNA 1: GAATTATCGGTAATCCATCGAGGT DNA 2: ACCTCGATGGATTACCGATAATTC,binding signal,MBP-Miz-1-FL [2],4.8 fold reduction of bound labeled P2
same,binding signal,MBP-Miz-1-FL [3],5.3 fold reduction of bound labeled P1
same,binding signal,[4],~2.5 fold bound intensity P1 over P2
P1m3 (dsDNA) DNA 1: ACCCTTATATCGGTAATCGGTAAG DNA 2: CTTACCGATTACCGATATAAGGGT,binding result,MBP-Miz-1-FL [5],binds
CP (dsDNA) DNA 1: CAAAAGTGCGGCTGCGTGGTGCAC DNA 2: GTGCACCACGCAGCCGCACTTTTG,binding result,[6],no binding
same,binding result,MBP-Miz-1-FL [7],no binding
same,binding result,Miz-1 untagged,no binding
P2 (dsDNA) DNA 1: AGGGTTGGTATCGATTATCGAGTT DNA 2: AACTCGATAATCGATACCAACCCT,binding signal,MBP-Miz-1-FL [8],2 fold reduction of bound labeled P1
same,binding signal,MBP-Miz-1-FL [9],6.4 fold reduction of bound labeled P2
